According to PMC9352680, “A comprehensive thermodynamic model for RNA binding by the Saccharomyces cerevisiae Pumilio protein PUF4”:
Changes are numbered by the printed parent chain. In names and notes the source's numbering stands.

T1: PUF4 RNA-binding domain (Saccharomyces cerevisiae, UniProt P25339 537-888)
T1 sequence: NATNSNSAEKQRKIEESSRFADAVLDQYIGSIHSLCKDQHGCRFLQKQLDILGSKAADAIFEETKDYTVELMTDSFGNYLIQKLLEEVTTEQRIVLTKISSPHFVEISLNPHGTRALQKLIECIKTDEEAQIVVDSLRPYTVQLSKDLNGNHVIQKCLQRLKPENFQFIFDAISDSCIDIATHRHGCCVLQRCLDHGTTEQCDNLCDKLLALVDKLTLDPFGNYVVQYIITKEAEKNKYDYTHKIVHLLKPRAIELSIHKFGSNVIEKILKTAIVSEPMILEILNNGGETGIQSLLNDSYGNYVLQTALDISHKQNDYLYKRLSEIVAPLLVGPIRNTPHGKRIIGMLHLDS

B1: Ib_S1_P5E.1_K5.1_C5.1_H5.1_[G2A]_A5.1_F5.1_[A10T]_T5.1 (ssRNA)
RNA: UCUCUUUAUAUUAUUUUCUCUU
B2: Ib_S1_P5E.1_K5.1_C5.1_H5.1_[A4G]_A5.1_F5.1_[A10G]_T5.1 (ssRNA)
RNA: UCUCUUUGUGUUAUUGUCUCUU
B3: Id_ii_S2_P4E.3_K4.2_C4.2_[C-2G]_[T-1C]_H4.2_A4.1_F4.1_T4.2_[G10C]_[T11A] (ssRNA)
RNA: UUUGAUUAAUAUGAUAUCGUUCUUUCUGCUAUAUAUUACAUUCUUUCUCGAUAUCAUAUUAAUCUUU
B4: Id_ii_S2_P4E.3_K4.2_C4.2_[C-2T]_[T-1A]_H4.2_A4.1_F4.1_T4.2_[G10C]_[T11A] (ssRNA)
RNA: B3 RNA with G28U, C29A
B5: Id_ii_S2_P4E.3_K4.2_C4.2_[C-2G]_[T-1C]_H4.2_A4.1_F4.1_T4.2_[G10A]_[T11C] (ssRNA)
RNA: B3 RNA with C39A, A40C
B6: Id_ii_S2_P4E.3_K4.2_C4.2_[C-2T]_H4.2_A4.1_F4.1_T4.2_[T11C] (ssRNA)
RNA: B3 RNA with G28U, C29U, C39G, A40C
B7: Id_ii_S2_P4E.3_K4.2_C4.2_[C-2A]_[T-1C]_H4.2_A4.1_F4.1_T4.2_[G10C] (ssRNA)
RNA: B3 RNA with G28A, A40U
B8: Id_ii_S2_P4E.3_K4.2_C4.2_[C-2T]_[T-1A]_H4.2_A4.1_F4.1_T4.2_[G10T] (ssRNA)
RNA: B3 RNA with G28U, C29A, C39U, A40U
B9: Id_ii_S2_P4E.3_K4.2_C4.2_[C-2T]_[T-1A]_H4.2_A4.1_F4.1_T4.2_[G10C]_[T11C] (ssRNA)
RNA: B3 RNA with G28U, C29A, A40C
B10: Id_ii_S2_P4E.3_K4.2_C4.2_[C-2G]_H4.2_A4.1_F4.1_T4.2_[G10T] (ssRNA)
RNA: B3 RNA with C29U, C39U, A40U
B11: Id_ii_S2_P4E.3_K4.2_C4.2_[C-2A]_[T-1C]_H4.2_A4.1_F4.1_T4.2_[G10C]_[T11A] (ssRNA)
RNA: B3 RNA with G28A
B12: Id_ii_S2_P4E.3_K4.2_C4.2_[C-2T]_H4.2_A4.1_F4.1_T4.2_[G10A]_[T11G] (ssRNA)
RNA: B3 RNA with G28U, C29U, C39A, A40G
B13: Id_ii_S2_P4E.3_K4.2_C4.2_[C-2T]_[T-1C]_H4.2_A4.1_F4.1_T4.2_[G10T]_[T11C] (ssRNA)
RNA: B3 RNA with G28U, C39U, A40C
B14: Id_ii_S2_P4E.3_K4.2_C4.2_[C-2T]_H4.2_A4.1_F4.1_T4.2_[G10T]_[T11A] (ssRNA)
RNA: B3 RNA with G28U, C29U, C39U
B15: Id_ii_S2_P4E.3_K4.2_C4.2_[C-2T]_[T-1C]_H4.2_A4.1_F4.1_T4.2_[G10C] (ssRNA)
RNA: B3 RNA with G28U, A40U
B16: Id_ii_S2_P4E.3_K4.2_C4.2_[C-2T]_[T-1G]_H4.2_A4.1_F4.1_T4.2 (ssRNA)
RNA: B3 RNA with G28U, C29G, C39G, A40U
B17: Id_ii_S2_P4E.3_K4.2_C4.2_[C-2T]_H4.2_A4.1_F4.1_T4.2_[G10A] (ssRNA)
RNA: B3 RNA with G28U, C29U, C39A, A40U
B18: Id_ii_S2_P4E.3_K4.2_C4.2_[C-2A]_[T-1C]_H4.2_A4.1_F4.1_T4.2_[G10C]_[T11C] (ssRNA)
RNA: B3 RNA with G28A, A40C
B19: Id_ii_S2_P4E.3_K4.2_C4.2_[C-2T]_H4.2_A4.1_F4.1_T4.2_[G10C]_[T11A] (ssRNA)
RNA: B3 RNA with G28U, C29U
B20: Id_ii_S2_P4E.3_K4.2_C4.2_[C-2T]_H4.2_A4.1_F4.1_T4.2_[G10C] (ssRNA)
RNA: B3 RNA with G28U, C29U, A40U
B21: Id_ii_S2_P4E.3_K4.2_C4.2_[C-2A]_[T-1C]_H4.2_A4.1_F4.1_T4.2_[G10C]_[T11G] (ssRNA)
RNA: B3 RNA with G28A, A40G
B22: Id_ii_S2_P4E.3_K4.2_C4.2_[C-2T]_[T-1C]_H4.2_A4.1_F4.1_T4.2_[G10A] (ssRNA)
RNA: B3 RNA with G28U, C39A, A40U
B23: Id_ii_S2_P4E.3_K4.2_C4.2_[C-2T]_[T-1G]_H4.2_A4.1_F4.1_T4.2_[G10A]_[T11A] (ssRNA)
RNA: B3 RNA with G28U, C29G, C39A
B24: Id_ii_S2_P4E.3_K4.2_C4.2_[C-2T]_[T-1C]_H4.2_A4.1_F4.1_T4.2_[G10A]_[T11A] (ssRNA)
RNA: B3 RNA with G28U, C39A
B25: Id_ii_S2_P4E.3_K4.2_C4.2_[C-2G]_H4.2_A4.1_F4.1_T4.2_[G10T]_[T11A] (ssRNA)
RNA: B3 RNA with C29U, C39U
B26: Id_ii_S2_P4E.3_K4.2_C4.2_[C-2T]_H4.2_A4.1_F4.1_T4.2_[G10C]_[T11C] (ssRNA)
RNA: B3 RNA with G28U, C29U, A40C
B27: Id_ii_S2_P4E.3_K4.2_C4.2_[C-2A]_[T-1G]_H4.2_A4.1_F4.1_T4.2_[G10T]_[T11C] (ssRNA)
RNA: B3 RNA with G28A, C29G, C39U, A40C
B28: Id_ii_S2_P4E.3_K4.2_C4.2_[C-2T]_[T-1C]_H4.2_A4.1_F4.1_T4.2_[G10C]_[T11G] (ssRNA)
RNA: B3 RNA with G28U, A40G
B29: Id_ii_S2_P4E.3_K4.2_C4.2_[C-2G]_[T-1C]_H4.2_A4.1_F4.1_T4.2_[G10A] (ssRNA)
RNA: B3 RNA with C39A, A40U
B30: Id_ii_S2_P4E.3_K4.2_C4.2_[C-2G]_H4.2_A4.1_F4.1_T4.2_[G10C] (ssRNA)
RNA: B3 RNA with C29U, A40U
B31: Id_ii_S2_P4E.3_K4.2_C4.2_[C-2A]_[T-1C]_H4.2_A4.1_F4.1_T4.2_[G10T]_[T11C] (ssRNA)
RNA: B3 RNA with G28A, C39U, A40C
B32: Id_ii_S2_P4E.3_K4.2_C4.2_[C-2T]_[T-1C]_H4.2_A4.1_F4.1_T4.2_[G10C]_[T11C] (ssRNA)
RNA: B3 RNA with G28U, A40C
B33: Id_ii_S2_P4E.3_K4.2_C4.2_[C-2A]_[T-1G]_H4.2_A4.1_F4.1_T4.2_[G10A]_[T11A] (ssRNA)
RNA: B3 RNA with G28A, C29G, C39A
B34: Id_ii_S2_P4E.3_K4.2_C4.2_[C-2T]_[T-1G]_H4.2_A4.1_F4.1_T4.2_[G10A]_[T11C] (ssRNA)
RNA: B3 RNA with G28U, C29G, C39A, A40C
B35: Id_ii_S2_P4E.3_K4.2_C4.2_[C-2T]_[T-1A]_H4.2_A4.1_F4.1_T4.2_[T11C] (ssRNA)
RNA: B3 RNA with G28U, C29A, C39G, A40C
B36: Id_ii_S2_P4E.3_K4.2_C4.2_[C-2G]_H4.2_A4.1_F4.1_T4.2_[G10T]_[T11G] (ssRNA)
RNA: B3 RNA with C29U, C39U, A40G
B37: Id_ii_S2_P4E.3_K4.2_C4.2_[C-2T]_H4.2_A4.1_F4.1_T4.2_[G10T]_[T11C] (ssRNA)
RNA: B3 RNA with G28U, C29U, C39U, A40C
B38: Id_ii_S2_P4E.3_K4.2_C4.2_[C-2T]_[T-1C]_H4.2_A4.1_F4.1_T4.2_[G10C]_[T11A] (ssRNA)
RNA: B3 RNA with G28U
B39: Id_ii_S2_P4E.3_K4.2_C4.2_[C-2T]_[T-1C]_H4.2_A4.1_F4.1_T4.2_[G10A]_[T11C] (ssRNA)
RNA: B3 RNA with G28U, C39A, A40C
B40: Id_ii_S2_P4E.3_K4.2_C4.2_[C-2T]_[T-1C]_H4.2_A4.1_F4.1_T4.2_[G10T]_[T11A] (ssRNA)
RNA: B3 RNA with G28U, C39U
B41: Id_ii_S2_P4E.3_K4.2_C4.2_[C-2T]_[T-1A]_H4.2_A4.1_F4.1_T4.2_[G10A] (ssRNA)
RNA: B3 RNA with G28U, C29A, C39A, A40U
B42: Id_ii_S2_P4E.3_K4.2_C4.2_[C-2T]_[T-1G]_H4.2_A4.1_F4.1_T4.2_[G10T]_[T11G] (ssRNA)
RNA: B3 RNA with G28U, C29G, C39U, A40G
B43: Id_ii_S2_P4E.3_K4.2_C4.2_[C-2T]_H4.2_A4.1_F4.1_T4.2_[G10A]_[T11A] (ssRNA)
RNA: B3 RNA with G28U, C29U, C39A
B44: Id_ii_S2_P4E.3_K4.2_C4.2_[C-2A]_[T-1C]_H4.2_A4.1_F4.1_T4.2_[G10T]_[T11G] (ssRNA)
RNA: B3 RNA with G28A, C39U, A40G
B45: Id_ii_S2_P4E.3_K4.2_C4.2_[C-2G]_[T-1C]_H4.2_A4.1_F4.1_T4.2_[G10T]_[T11C] (ssRNA)
RNA: B3 RNA with C39U, A40C
B46: Id_ii_S2_P4E.3_K4.2_C4.2_[C-2G]_[T-1C]_H4.2_A4.1_F4.1_T4.2_[G10T]_[T11G] (ssRNA)
RNA: B3 RNA with C39U, A40G
B47: Id_ii_S2_P4E.3_K4.2_C4.2_[C-2T]_H4.2_A4.1_F4.1_T4.2_[G10T]_[T11G] (ssRNA)
RNA: B3 RNA with G28U, C29U, C39U, A40G
B48: Id_ii_S2_P4E.3_K4.2_C4.2_[C-2G]_H4.2_A4.1_F4.1_T4.2_[G10A]_[T11A] (ssRNA)
RNA: B3 RNA with C29U, C39A
B49: Id_ii_S2_P4E.3_K4.2_C4.2_[C-2T]_H4.2_A4.1_F4.1_T4.2 (ssRNA)
RNA: B3 RNA with G28U, C29U, C39G, A40U
B50: Ib_S1_P5E.1_K5.1_C5.1_H5.1_[G2A]_A5.1_F5.1_[A10C]_T5.1 (ssRNA)
RNA: UCUCUUUAUAUUAUUCUCUCUU
B51: Ia_S1_P5E.1_K5.1_C5.1_H5.1_[G2A]_A5.1_F5.1_T5.1 (ssRNA)
RNA: UCUCUUUAUAUUAUUAUCUCUU
B52: Ib_S1_P5E.1_K5.1_C5.1_H5.1_[G2T]_A5.1_F5.1_[A10T]_T5.1 (ssRNA)
RNA: UCUCUUUUUAUUAUUUUCUCUU
B53: Ib_S1_P5E.1_K5.1_C5.1_H5.1_[T3C]_A5.1_F5.1_[A10C]_T5.1 (ssRNA)
RNA: UCUCUUUGCAUUAUUCUCUCUU

What follows are binders tested against T1, PUF4 RNA-binding domain (assay: Mg; RNA-MaP; 20 mM Na-HEPES pH 7.4, 30 mM KOAc, 0.75 mM MgCl2, 0.1% Tween-20, 5% glycerol, 0.1 mg/mL BSA, 2 mM DTT; 25 C; 0.0125-409.6 nM protein). Details: tags: N-His6-TEV cleaved; C-SNAP kept, Cy3B-labelled; label: tethered on chip by stalled RNA polymerase.

| Binder | Kd [nM] |
| --- | --- |
| B1 | 473 |
| B2 | 382 |
| B3 | 56.6 |
| B4 | 17.5 |
| B5 | 57.7 |
| B6 | 5.53 |
| B7 | 9.33 |
| B8 | 14.9 |
| B9 | 14.9 |
| B10 | 7.68 |
| B11 | 16.8 |
| B12 | 700 |
| B13 | 7 |
| B14 | 23.8 |
| B15 | 6.91 |
| B16 | 1.86 |
| B17 | 17.3 |
| B18 | 8.87 |
| B19 | 8.41 |
| B20 | 3.66 |
| B21 | 159 |
| B22 | 8.89 |
| B23 | 2.31 |
| B24 | 18.5 |
| B25 | 53.5 |
| B26 | 8.62 |
| B27 | 284 |

| Binder | Kd [nM] |
| --- | --- |
| B28 | 8.91 |
| B29 | 16.7 |
| B30 | 26.9 |
| B31 | 10.6 |
| B32 | 8.5 |
| B33 | 135 |
| B34 | 4.44 |
| B35 | 10.2 |
| B36 | 11.2 |
| B37 | 7.36 |
| B38 | 11.5 |
| B39 | 8.95 |
| B40 | 13.5 |
| B41 | 17 |
| B42 | 2.66 |
| B43 | 141 |
| B44 | 135 |
| B45 | 22.4 |
| B46 | 29.1 |
| B47 | 6.27 |
| B48 | 13.7 |
| B49 | 9.27 |
| B50 | 462 |
| B51 | 367 |
| B52 | > 2300 |
| B53 | > 2300 |
